Laboratory results from PMC6167328, “Elucidating a role for the cytoplasmic domain in the Mycobacterium tuberculosis mechanosensitive channel of large conductance” (Scientific Reports, 2018).

Target: the molecule itself
Experiment: crystal structure

B1: C-terminal domain truncation of the Mycobacterium tuberculosis mechanosensitive channel of large conductance (MtMscLΔC) (domain or fragment)
chain: MLKGFKEFLARGNIVDLAVAVVIGTAFTALVTKFTDSIITPLINRIGVNAQSDVGILRIGIGGGQTIDLNVLLSAAINFFLIAFAVYFLVVLPYNTLRKKG
notes: Residues 97-101 are not resolved in the model; also called Mt ∆C
Q: B1 was tested. Which “stoichiometry N” value did it give?
A: 5
